# Assay results published in PMC12095755 (Nature Communications, 2025).
# Target: human MDM2 (Homo sapiens, UniProt Q00987)
# Test: MDM2 AlphaLISA competition assay
# Type: binding
# Settings: up to 50 µM
# human MDM2, sequence (Q00987 whole entry): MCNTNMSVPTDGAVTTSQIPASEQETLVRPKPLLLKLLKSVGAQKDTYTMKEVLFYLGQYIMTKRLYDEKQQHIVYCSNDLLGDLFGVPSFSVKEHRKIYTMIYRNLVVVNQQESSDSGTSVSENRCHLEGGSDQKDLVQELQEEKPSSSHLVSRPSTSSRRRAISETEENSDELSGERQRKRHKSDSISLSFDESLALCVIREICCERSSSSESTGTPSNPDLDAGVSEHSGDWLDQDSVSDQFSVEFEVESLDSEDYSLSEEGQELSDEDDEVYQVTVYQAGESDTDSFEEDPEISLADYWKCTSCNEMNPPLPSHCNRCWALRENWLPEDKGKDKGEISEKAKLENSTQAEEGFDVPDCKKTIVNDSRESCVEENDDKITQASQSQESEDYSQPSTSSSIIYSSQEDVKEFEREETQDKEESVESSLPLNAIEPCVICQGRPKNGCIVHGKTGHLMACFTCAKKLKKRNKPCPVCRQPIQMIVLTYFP
substance,measurement,value
F-S-D-L-W (FSDLW) [p53 motif],activity in the AlphaLISA assay,no activity
